The record followed here is US20210054062A1 (NEURACLE SCIENCE, published 2021).

Assay [1] addresses T1, FAM19A5-rabbit Fc.
T1 construct: also called FAM19A5-rFc
The assay is described as follows: ELISA: FAM19A5-rFc captured on coated anti-rabbit Fc antibody, antibody at 2.8 to 2055 pM, anti-human kappa light chain-HRP, OD450. The table prints R2 of the fit as 0.999. How it is done:
(§1) For the ELISA assay, the following protocol was used. Anti-rabbit Fc antibody (diluted to a concentration of 1 μg/mL in 50 mM carbonate buffer, pH 9.6) was used to coat the 96-well plates (100 μL/well) overnight at 4° C. Next, the plates were washed with the washing buffer (PBST: 0.05% Tween-20/PBS) for a total of five washes. The plates were then blocked for 1 hour at 37° C. with the blocking buffer (1% BSA/PBST) (150 μL/well) and washed again with the washing buffer. Then, 50 ng/mL of FAM19A5-rabbit Fc (also called FAM19A5-rFc) antigen diluted in blocking buffer was added to each of the wells. The plates were incubated for an additional hour at 37° C. After the incubation, the plates were washed again for a total of five washes with the washing buffer. The diluted anti-FAM19A5 antibodies in blocking buffer to different concentrations (2055 pM, 685 pM, 228.3 pM, 76.1 pM, 25.4 pM, 8.5 pM, 2.8 pM, 0 pM) were added to each of the wells, and the plates were incubated for 2 hours at 37° C. After the incubation, the plates were washed (total of five washes in the wash buffer) and then, diluted anti-human kappa light chain-HRP (1:10000 in blocking buffer) was added to the well (100 μL/well). […] This reaction was stopped using 100 μL of sulfuric acid (2N H₂SO₄), and the extent of color change was detected via absorption at 450 nm using a 96 well microplate reader (Molecular Device).

Assay [2] has as its target T1, FAM19A5-rabbit Fc. Nature of the assay: ELISA: FAM19A5-rFc captured on coated anti-rabbit Fc antibody, antibody at 2.8 to 2055 pM, anti-human kappa light chain-HRP, OD450. The table prints R2 of the fit as 1.000. On the procedure: as §1
On the technique in general: ELISA stands for enzyme-linked immunosorbent assay.

T1 sequence (Q7Z5A7 44-132): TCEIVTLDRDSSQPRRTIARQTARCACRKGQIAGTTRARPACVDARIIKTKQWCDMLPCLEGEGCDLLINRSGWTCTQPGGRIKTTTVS

B1: Anti-FAM19A5 antibody ("S5-SG") (antibody, V domains shown)
VH: AVTLDESGGGLQTPGGALRLSCKASGFTFSSYQMGWVRQAPGKGLEWVSAINKGGSDTSYGSAVKGRATISRDNGQSTLYLQMNSLRAEDTAVYFCAKGSASYITAATIDAWGHGTEVIVSS
VL: ALTQPSSVSANPGETARITCSGGASSGYGYGWYQQKPSSAPLTVIYKDSERPSDIPSRFSGSSSGSTHTLTISGVQAEDEAVYFCGNDDYSSDSGYVGVFGAGTTLTVL
notes: The ELISA detected it with anti-human kappa light chain-HRP; also called deimmunized clone S5-SG; S5-2.GKNG antibody
Take B1: the EC50 (commonly the concentration at which the effect is half-maximal) in the assay with FAM19A5-rabbit Fc [1] amounted to 0.21 nM.

B2: Reference anti-FAM19A5 antibody ("1-65") (antibody, V domains shown)
VH: AVTLDESGGGLQTPGGALSLVCKASGFTFSSYQMGWVRQAPGKGLEWVGVINKSGSDTSYGSAVKGRATISRDNGQSTVRLQLNNLRAEDTGTYFCAKGSASYITAATIDAWGHGTEVIVSS
VL: ALTQPSSVSANPGETVKITCSGGGSSGYGYGWYQQKSPSSAPLTVIYWNDKRPSDIPSRFSGSKSGSTHTLTITGVQAEDEAVYFCGNDDYSSDSGYVGVFGAGTTLTVL
notes: The ELISA detected it with anti-human kappa light chain-HRP; also called 1-65 antibody; clone 1-65
In turn, B2 gave an EC50 with FAM19A5-rabbit Fc [2] of 0.13 nM. That is a sub-nanomolar value.

B3: Anti-FAM19A5 antibody ("SS01-13-s5") (antibody, V domains shown)
VH: AVTLDESGGGLQTPGGALRLSCKASGFTFSSYQMGWVRQAPGKGLEWVSAINKSGSDTSYGSAVKGRATISRDNGQSTLYLQMNSLRAEDTAVYFCAKGSASYITAATIDAWGHGTEVIVSS
VL: ALTQPSSVSANPGETARITCSGGASSGYGYGWYQQKPSSAPLTVIYKDSERPSDIPSRFSGSSSGSTHTLTISGVQAEDEAVYFCGNDDYSSDSGYVGVFGAGTTLTVL
notes: The ELISA detected it with anti-human kappa light chain-HRP; also called deimmunized clone 1-65; deimmunized 1-65 antibody
B3 yielded an EC50 in the assay with FAM19A5-rabbit Fc [2] of 0.38 nM.
